Data taken from patent publication US12139520B2 (priority 2020, dated 2024).
Numbered stars: 1 amine (or outer) side, 2 acyl side, 3 side chain; on linkers, the order of the positions; unused ones are H or OH. Bridge positions count the residues as written; N and C are the ends. Square brackets hold non-standard residues; d marks the D form. Side chains are listed from the residue outwards. Ends that are not written are not given here. * marks the point of attachment. C20 diacid = O=C(O)CCCCCCCCCCCCCCCCCCC(=O)*; γGlu = O=C(O)[C@H](CCC(=O)[*:2])N[*:1]; Hyp = O=C(O)[C@@H]1C[C@@H](O)CN1; AEEA = NCCOCCOCC(=O)O

How the values were obtained:
hAMY3R = molecular target: T1, hAMY3R (human, UniProt P30988); test: cell-based or functional assay
T1 sequence 1: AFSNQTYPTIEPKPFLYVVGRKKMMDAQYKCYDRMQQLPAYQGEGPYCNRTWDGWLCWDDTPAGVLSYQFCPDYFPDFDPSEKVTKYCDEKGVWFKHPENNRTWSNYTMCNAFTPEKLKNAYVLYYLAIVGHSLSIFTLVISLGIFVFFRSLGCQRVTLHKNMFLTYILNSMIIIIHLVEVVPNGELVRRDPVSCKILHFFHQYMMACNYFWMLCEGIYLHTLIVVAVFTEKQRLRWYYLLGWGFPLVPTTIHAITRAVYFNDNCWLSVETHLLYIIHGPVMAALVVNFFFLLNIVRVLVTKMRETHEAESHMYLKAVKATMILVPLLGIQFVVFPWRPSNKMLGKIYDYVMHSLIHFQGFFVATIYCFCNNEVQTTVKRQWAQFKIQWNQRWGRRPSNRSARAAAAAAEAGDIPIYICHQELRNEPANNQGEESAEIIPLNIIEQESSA
T1 sequence 2: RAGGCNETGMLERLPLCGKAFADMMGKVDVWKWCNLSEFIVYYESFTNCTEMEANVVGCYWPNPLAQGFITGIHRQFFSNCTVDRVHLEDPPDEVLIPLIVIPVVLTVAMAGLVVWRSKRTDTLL

hAM1R = hAM1R (human, UniProt Q16602); test: cell-based or functional assay

hAMY3R EC50 (cAMP) (hAMY3R) | hAM1R EC50 (cAMP) (hAM1R) | Binder
0.012 nM | > 5000 nM | KCNTATCATQRLANFLVHSSNNFGAILSSTKVGSNTY [SEQ ID NO: 58]
0.012 nM | > 5000 nM | KCNTATCATQRLANFLVHSSNNFGAILPSTKVGSNGY [SEQ ID NO: 59]
0.012 nM | > 5000 nM | {C20 diacid-γGlu}-KCNTATCTVQRLAHQIYQFTDKDKDNVAPPTKVGSNG[Hyp]-NH2 (disulfide 2-7 (inferred); not fully specified; ends not checked) [SEQ ID NO: 60]
0.012 nM | > 5000 nM | KCNTATCTVQRLAEQIYQFTDKDKDNVSPPTNVGSNG[Hyp]-NH2 (disulfide 2-7 (inferred); ends not checked) [SEQ ID NO: 66]
0.012 nM | 590 nM | {C20 diacid-γGlu}-KCNTATCTVQRLAHQIYQFSDKDKDNVAPPTNVGSNG[Hyp]-NH2 (disulfide 2-7 (inferred); ends not checked) [SEQ ID NO: 57]
0.012 nM | > 5000 nM | {C20 diacid-γGlu}-KCNTATCTVQRLAHQIAQFTDKDKDNVAPPTNVGSNG[Hyp]-NH2 (disulfide 2-7 (inferred); not fully specified; ends not checked) [SEQ ID NO: 61]
0.012 nM | > 5000 nM | KCNTATCTVQRLAHQIYQFTDADKDNVAPPTNVGSNG[Hyp]-NH2 (disulfide 2-7 (inferred); ends not checked) [SEQ ID NO: 64]
0.012 nM | > 5000 nM | KCNTATCTVQRLAHQIYQFDKDKDNVAPPTNVGSNG[Hyp]-NH2 (disulfide 2-7 (inferred); ends not checked) [SEQ ID NO: 65]
0.012 nM | > 5000 nM | {C20 diacid-γGlu}-KCNTSTCTVQRLAHQIAQFTDKDKDNVAPPTNVGSNG[Hyp]-NH2 (disulfide 2-7 (inferred); not fully specified; ends not checked) [SEQ ID NO: 62]
0.013 nM | 680 nM | {C20 diacid-γGlu}-KCNTATCTVQRLAHQIAQFTDKDKDNVAPPTNVGSNS[Hyp]-NH2 (disulfide 2-7 (inferred); not fully specified; ends not checked) [SEQ ID NO: 69]
0.013 nM | 116 nM | {C20 diacid-γGlu}-KCNFATCTVQRLAHQIYQFTDKDKDNVAPRTEVGSNG[Hyp]-NH2 (disulfide 2-7 (inferred); not fully specified; ends not checked) [SEQ ID NO: 67]
0.013 nM | 255 nM | {C20 diacid-γGlu}-KCNFATCTVQRLAHQIYQFTDKDKDNVAPPTEVGSNG[Hyp]-NH2 (disulfide 2-7 (inferred); not fully specified; ends not checked) [SEQ ID NO: 68]
0.012 nM | > 5000 nM | {C20 diacid-γGlu}-KCNTATCTVQRLAEQIYQFTDKDKDNVAPPTAVGSNG[Hyp]-NH2 (disulfide 2-7 (inferred); not fully specified; ends not checked) [SEQ ID NO: 63]

More lines, now with the values behind:

Binder | hAMY3R EC50 (cAMP) (hAMY3R) | hAM1R EC50 (cAMP) (hAM1R)
KCNTATCTVQRLAAQIYQFTDKDKDNVAPPTNVGSNG[Hyp]-NH2 (disulfide 2-7 (inferred); ends not checked) [SEQ ID NO: 7] | 0.006 nM | > 5000 nM
KCNTATCTVQRLAEQIYQFTDKDKDNVAPPTNVGSK([AEEA-AEEA-γGlu-C20 diacid])G[Hyp]-NH2 (disulfide 2-7 (inferred); ends not checked) [SEQ ID NO: 6] | 0.006 nM | > 5000 nM
GCRFGTCTVQRLAHFLYQFTDKDKDNVAPRTNVGPQGY [SEQ ID NO: 54] | 0.012 nM | 46.2 nM
GCRFGTCTVQRLAHFLYQFTDKDKDNVAPRTNVGSNTY [SEQ ID NO: 56] | 0.012 nM | 103 nM
{C20 diacid-γGlu}-KCNTSTCTVQRLAHQIYQFTDKDKDNVAPPTNVGSNG[Hyp]-NH2 (disulfide 2-7 (inferred); ends not checked) [SEQ ID NO: 50] | 0.011 nM | > 5000 nM
{C20 diacid-γGlu}-KCNTATCTVERLAHQIYQFTDKDKDNVAPPTNVGSNG[Hyp]-NH2 (disulfide 2-7 (inferred); ends not checked) [SEQ ID NO: 55] | 0.012 nM | 63.8 nM
KCNTATCTVQRLAHQIYQFTDKDKDNVAAPTNVGSNG[Hyp]-NH2 (disulfide 2-7 (inferred); ends not checked) [SEQ ID NO: 53] | 0.011 nM | > 5000 nM
{C20 diacid-γGlu}-KCNTATCTVQRLADQIYQFTDKDKDNVAPPTNVGSNG[Hyp]-NH2 (disulfide 2-7 (inferred); ends not checked) [SEQ ID NO: 5] | 0.006 nM | > 5000 nM
KCNTATCTVQRLAHQIYQFTDKDKDAVAPPTNVGSNG[Hyp]-NH2 (disulfide 2-7 (inferred); ends not checked) [SEQ ID NO: 52] | 0.011 nM | > 5000 nM
{C20 diacid-γGlu}-KCNTATCTVQRLAEQIYQFTDKDKDNVAPPTNVGSNG[Hyp]-NH2 (disulfide 2-7 (inferred); ends not checked) [SEQ ID NO: 51] | 0.011 nM | > 5000 nM
